Results published in patent US20250066503A1, “CELL INJURY INDUCING THERAPEUTIC DRUG FOR USE IN CANCER THERAPY” (CHUGAI SEIYAKU KABUSHIKI KAISHA, priority 2016, published 2025).

Target: T1, human GPC3 (human, UniProt P51654 25-563)
T1 construct: range 25-563; soluble analyte; also called soluble human GPC3; glypican 3
Assay: SPR

T1 sequence (P51654 25-563 limits assumed): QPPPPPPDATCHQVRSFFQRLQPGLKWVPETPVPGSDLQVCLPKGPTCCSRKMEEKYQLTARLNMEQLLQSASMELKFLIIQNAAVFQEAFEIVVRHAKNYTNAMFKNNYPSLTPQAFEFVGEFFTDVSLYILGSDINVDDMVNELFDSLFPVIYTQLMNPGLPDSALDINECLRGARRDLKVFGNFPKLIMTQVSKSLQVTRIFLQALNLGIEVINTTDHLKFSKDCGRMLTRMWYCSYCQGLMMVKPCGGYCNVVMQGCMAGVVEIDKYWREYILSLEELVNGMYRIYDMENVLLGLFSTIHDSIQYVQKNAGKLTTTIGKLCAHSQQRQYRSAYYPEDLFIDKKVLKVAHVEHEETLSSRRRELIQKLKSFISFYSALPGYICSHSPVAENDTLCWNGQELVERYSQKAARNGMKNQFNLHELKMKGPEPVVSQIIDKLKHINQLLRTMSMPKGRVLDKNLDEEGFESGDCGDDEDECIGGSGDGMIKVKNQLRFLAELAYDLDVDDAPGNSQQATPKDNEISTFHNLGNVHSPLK

Kd	Binder
5.38 nM	H0610-G1dh/none-Hi-Kn010G3/L0232-k0 (antibody, V domains shown, one-arm) VH: QVQLVQSGAEVKKPGASVKVSCKASGYTFTDYEMHWIRQPPGQGLEWIGAIDGKTPDTAYSQKFKGRVTLTADKSTSTAYMELSSLTSEDTAVYYCTRFYSYTYWGQGTLVTVSS VL: DIVMTQSPLSLPVTPGEPASISCRSSESLVHSNRNTYLHWYQQKPGQAPRLLIYKVSNRFSGVPDRFSGSGSGTDFTLKISRVEAEDVGVYYCGQGTQVPYTFGQGTKLEIK
0.0107 nM	H0610-G1dh/none-Hi-Kn010G3/L0261-k0 (antibody, V domains shown, one-arm) VH: QVQLVQSGAEVKKPGASVKVSCKASGYTFTDYEMHWIRQPPGQGLEWIGAIDGKTPDTAYSQKFKGRVTLTADKSTSTAYMELSSLTSEDTAVYYCTRFYSYTYWGQGTLVTVSS VL: DIVMTQSPLSLPVTPGEPASISCRSSQSPVHSNRNTYIQWYQQKPGQAPRLLIYKVSNRFSGVPDRFSGSGSGTDFTLKISRVEAEDVGVYYCTQGTQVPYTFGQGTKLEIK
0.848 nM	H0610-G1dh/none-Hi-Kn010G3/L0240-k0 (antibody, V domains shown, one-arm) VH: QVQLVQSGAEVKKPGASVKVSCKASGYTFTDYEMHWIRQPPGQGLEWIGAIDGKTPDTAYSQKFKGRVTLTADKSTSTAYMELSSLTSEDTAVYYCTRFYSYTYWGQGTLVTVSS VL: DIVMTQSPLSLPVTPGEPASISCRSSESPVHSNRNTYLHWYQQKPGQAPRLLIYKVSNRFSGVPDRFSGSGSGTDFTLKISRVEAEDVGVYYCYQGTQVPYTFGQGTKLEIK
0.874 nM	H0610-G1dh/none-Hi-Kn010G3/L0239-k0 (antibody, V domains shown, one-arm) VH: QVQLVQSGAEVKKPGASVKVSCKASGYTFTDYEMHWIRQPPGQGLEWIGAIDGKTPDTAYSQKFKGRVTLTADKSTSTAYMELSSLTSEDTAVYYCTRFYSYTYWGQGTLVTVSS VL: DIVMTQSPLSLPVTPGEPASISCRSSESPVHSNRNTYLHWYQQKPGQAPRLLIYKVSNRFRGVPDRFSGSGSGTDFTLKISRVEAEDVGVYYCGQGTQVPYTFGQGTKLEIK
0.0555 nM	H0610-G1dh/none-Hi-Kn010G3/L0248-k0 (antibody, V domains shown, one-arm) VH: QVQLVQSGAEVKKPGASVKVSCKASGYTFTDYEMHWIRQPPGQGLEWIGAIDGKTPDTAYSQKFKGRVTLTADKSTSTAYMELSSLTSEDTAVYYCTRFYSYTYWGQGTLVTVSS VL: DIVMTQSPLSLPVTPGEPASISCRPSQSPVHSNRNTYIQWYQQKPGQAPRLLIYKVSNRFSGVPDRFSGSGSGTDFTLKISRVEAEDVGVYYCYQGTQVPYTFGQGTKLEIK
0.00121 nM	H0610-G1dh/none-Hi-Kn010G3/L0246-k0 (antibody, V domains shown, one-arm) VH: QVQLVQSGAEVKKPGASVKVSCKASGYTFTDYEMHWIRQPPGQGLEWIGAIDGKTPDTAYSQKFKGRVTLTADKSTSTAYMELSSLTSEDTAVYYCTRFYSYTYWGQGTLVTVSS VL: DIVMTQSPLSLPVTPGEPASISCRSSQSPVHSNRNTYIQWYQQKPGQAPRLLIYKVSNRFSGVPDRFSGSGSGTDFTLKISRVEAEDVGVYYCSQGTQVPYTFGQGTKLEIK
0.0169 nM	H0610-G1dh/none-Hi-Kn010G3/L0268-k0 (antibody, V domains shown, one-arm) VH: QVQLVQSGAEVKKPGASVKVSCKASGYTFTDYEMHWIRQPPGQGLEWIGAIDGKTPDTAYSQKFKGRVTLTADKSTSTAYMELSSLTSEDTAVYYCTRFYSYTYWGQGTLVTVSS VL: DIVMTQSPLSLPVTPGEPASISCRSSQSPVHSNRNTYIQWYQQKPGQAPRLLIYKVSNRFSGVPDRFSGSGSGTDFTLKISRVEAEDVGVYYCVQGTQVPYTFGQGTKLEIK
0.211 nM	H0610-G1dh/none-Hi-Kn010G3/L0262-k0 (antibody, V domains shown, one-arm) VH: QVQLVQSGAEVKKPGASVKVSCKASGYTFTDYEMHWIRQPPGQGLEWIGAIDGKTPDTAYSQKFKGRVTLTADKSTSTAYMELSSLTSEDTAVYYCTRFYSYTYWGQGTLVTVSS VL: DIVMTQSPLSLPVTPGEPASISCRSSQPPVHSNRNTYLHWYQQKPGQAPRLLIYKVSNRFSGVPDRFSGSGSGTDFTLKISRVEAEDVGVYYCAQGTQVPYTFGQGTKLEIK
0.334 nM	H0610-G1dh/none-Hi-Kn010G3/L0259-k0 (antibody, V domains shown, one-arm) VH: QVQLVQSGAEVKKPGASVKVSCKASGYTFTDYEMHWIRQPPGQGLEWIGAIDGKTPDTAYSQKFKGRVTLTADKSTSTAYMELSSLTSEDTAVYYCTRFYSYTYWGQGTLVTVSS VL: DIVMTQSPLSLPVTPGEPASISCRSSQSPVHSNRNTYIHWYQQKPGQAPRLLIYKVSNRFSGVPDRFSGSGSGTDFTLKISRVEAEDVGVYYCTQGTQVPYTFGQGTKLEIK
0.179 nM	H0610-G1dh/none-Hi-Kn010G3/L0267-k0 (antibody, V domains shown, one-arm) VH: QVQLVQSGAEVKKPGASVKVSCKASGYTFTDYEMHWIRQPPGQGLEWIGAIDGKTPDTAYSQKFKGRVTLTADKSTSTAYMELSSLTSEDTAVYYCTRFYSYTYWGQGTLVTVSS VL: DIVMTQSPLSLPVTPGEPASISCRPSQSPVHSNRNTYLHWYQQKPGQAPRLLIYKVSNRFSGVPDRFSGSGSGTDFTLKISRVEAEDVGVYYCVQGTQVPYTFGQGTKLEIK
1.31 nM	H0610-G1dh/none-Hi-Kn010G3/L0237-k0 (antibody, V domains shown, one-arm) VH: QVQLVQSGAEVKKPGASVKVSCKASGYTFTDYEMHWIRQPPGQGLEWIGAIDGKTPDTAYSQKFKGRVTLTADKSTSTAYMELSSLTSEDTAVYYCTRFYSYTYWGQGTLVTVSS VL: DIVMTQSPLSLPVTPGEPASISCRSSQEPVHSNRNTYIHWYQQKPGQAPRLLIYKVSNRFSGVPDRFSGSGSGTDFTLKISRVEAEDVGVYYCYQGTQVPYTFGQGTKLEIK
0.219 nM	H0610-G1dh/none-Hi-Kn010G3/L0264-k0 (antibody, V domains shown, one-arm) VH: QVQLVQSGAEVKKPGASVKVSCKASGYTFTDYEMHWIRQPPGQGLEWIGAIDGKTPDTAYSQKFKGRVTLTADKSTSTAYMELSSLTSEDTAVYYCTRFYSYTYWGQGTLVTVSS VL: DIVMTQSPLSLPVTPGEPASISCRPSQSPVHSNRNTYLHWYQQKPGQAPRLLIYKVSNRFSGVPDRFSGSGSGTDFTLKISRVEAEDVGVYYCAQGTQVPYTFGQGTKLEIK
0.000352 nM	H0610-G1dh/none-Hi-Kn010G3/L0258-k0 (antibody, V domains shown, one-arm) VH: QVQLVQSGAEVKKPGASVKVSCKASGYTFTDYEMHWIRQPPGQGLEWIGAIDGKTPDTAYSQKFKGRVTLTADKSTSTAYMELSSLTSEDTAVYYCTRFYSYTYWGQGTLVTVSS VL: DIVMTQSPLSLPVTPGEPASISCRSSQPPVHSNRNTYLHWYQQKPGQAPRLLIYKVSNRFSGVPDRFSGSGSGTDFTLKISRVEAEDVGVYYCTQGTQVPYTFGQGTKLEIK
0.649 nM	H0610-G1dh/none-Hi-Kn010G3/L0243-k0 (antibody, V domains shown, one-arm) VH: QVQLVQSGAEVKKPGASVKVSCKASGYTFTDYEMHWIRQPPGQGLEWIGAIDGKTPDTAYSQKFKGRVTLTADKSTSTAYMELSSLTSEDTAVYYCTRFYSYTYWGQGTLVTVSS VL: DIVMTQSPLSLPVTPGEPASISCRSSEPPVHSNRNTYLHWYQQKPGQAPRLLIYKVSNRFRGVPDRFSGSGSGTDFTLKISRVEAEDVGVYYCGQGTQVPYTFGQGTKLEIK
0.564 nM	H0610-G1dh/none-Hi-Kn010G3/L0263-k0 (antibody, V domains shown, one-arm) VH: QVQLVQSGAEVKKPGASVKVSCKASGYTFTDYEMHWIRQPPGQGLEWIGAIDGKTPDTAYSQKFKGRVTLTADKSTSTAYMELSSLTSEDTAVYYCTRFYSYTYWGQGTLVTVSS VL: DIVMTQSPLSLPVTPGEPASISCRSSQSPVHSNRNTYIHWYQQKPGQAPRLLIYKVSNRFSGVPDRFSGSGSGTDFTLKISRVEAEDVGVYYCAQGTQVPYTFGQGTKLEIK
0.0087 nM	H0610-G1dh/none-Hi-Kn010G3/L0265-k0 (antibody, V domains shown, one-arm) VH: QVQLVQSGAEVKKPGASVKVSCKASGYTFTDYEMHWIRQPPGQGLEWIGAIDGKTPDTAYSQKFKGRVTLTADKSTSTAYMELSSLTSEDTAVYYCTRFYSYTYWGQGTLVTVSS VL: DIVMTQSPLSLPVTPGEPASISCRSSQSPVHSNRNTYIQWYQQKPGQAPRLLIYKVSNRFSGVPDRFSGSGSGTDFTLKISRVEAEDVGVYYCAQGTQVPYTFGQGTKLEIK
3.55 nM	H0610-G1dh/none-Hi-Kn010G3/L0233-k0 (antibody, V domains shown, one-arm) VH: QVQLVQSGAEVKKPGASVKVSCKASGYTFTDYEMHWIRQPPGQGLEWIGAIDGKTPDTAYSQKFKGRVTLTADKSTSTAYMELSSLTSEDTAVYYCTRFYSYTYWGQGTLVTVSS VL: DIVMTQSPLSLPVTPGEPASISCRSSQELVHSNRNTYLHWYQQKPGQAPRLLIYKVSNRFSGVPDRFSGSGSGTDFTLKISRVEAEDVGVYYCGQGTQVPYTFGQGTKLEIK
0.637 nM	H0610-G1dh/none-Hi-Kn010G3/L0238-k0 (antibody, V domains shown, one-arm) VH: QVQLVQSGAEVKKPGASVKVSCKASGYTFTDYEMHWIRQPPGQGLEWIGAIDGKTPDTAYSQKFKGRVTLTADKSTSTAYMELSSLTSEDTAVYYCTRFYSYTYWGQGTLVTVSS VL: DIVMTQSPLSLPVTPGEPASISCRSSEPPVHSNRNTYLHWYQQKPGQAPRLLIYKVSNRFSGVPDRFSGSGSGTDFTLKISRVEAEDVGVYYCYQGTQVPYTFGQGTKLEIK
0.778 nM	H0610-G1dh/none-Hi-Kn010G3/L0234-k0 (antibody, V domains shown, one-arm) VH: QVQLVQSGAEVKKPGASVKVSCKASGYTFTDYEMHWIRQPPGQGLEWIGAIDGKTPDTAYSQKFKGRVTLTADKSTSTAYMELSSLTSEDTAVYYCTRFYSYTYWGQGTLVTVSS VL: DIVMTQSPLSLPVTPGEPASISCRSSQEPVHSNRNTYLHWYQQKPGQAPRLLIYKVSNRFRGVPDRFSGSGSGTDFTLKISRVEAEDVGVYYCGQGTQVPYTFGQGTKLEIK
0.213 nM	H0610-G1dh/none-Hi-Kn010G3/L0266-k0 (antibody, V domains shown, one-arm) VH: QVQLVQSGAEVKKPGASVKVSCKASGYTFTDYEMHWIRQPPGQGLEWIGAIDGKTPDTAYSQKFKGRVTLTADKSTSTAYMELSSLTSEDTAVYYCTRFYSYTYWGQGTLVTVSS VL: DIVMTQSPLSLPVTPGEPASISCRSSQPPVHSNRNTYLHWYQQKPGQAPRLLIYKVSNRFSGVPDRFSGSGSGTDFTLKISRVEAEDVGVYYCVQGTQVPYTFGQGTKLEIK
1.19 nM	H0610-G1dh/none-Hi-Kn010G3/L0242-k0 (antibody, V domains shown, one-arm) VH: QVQLVQSGAEVKKPGASVKVSCKASGYTFTDYEMHWIRQPPGQGLEWIGAIDGKTPDTAYSQKFKGRVTLTADKSTSTAYMELSSLTSEDTAVYYCTRFYSYTYWGQGTLVTVSS VL: DIVMTQSPLSLPVTPGEPASISCRSSESPVHSNRNTYIHWYQQKPGQAPRLLIYKVSNRFSGVPDRFSGSGSGTDFTLKISRVEAEDVGVYYCYQGTQVPYTFGQGTKLEIK
0.00686 nM	H0610-G1dh/none-Hi-Kn010G3/L0249-k0 (antibody, V domains shown, one-arm) VH: QVQLVQSGAEVKKPGASVKVSCKASGYTFTDYEMHWIRQPPGQGLEWIGAIDGKTPDTAYSQKFKGRVTLTADKSTSTAYMELSSLTSEDTAVYYCTRFYSYTYWGQGTLVTVSS VL: DIVMTQSPLSLPVTPGEPASISCRPSQSPVHSNRNTYIQWYQQKPGQAPRLLIYKVSNRFSGVPDRFSGSGSGTDFTLKISRVEAEDVGVYYCSQGTQVPYTFGQGTKLEIK
